Assays:
Assay in all cases: filter
[1] = biological target: IL-23 (human, p19/p40 heterodimer) (Homo sapiens) (UniProt Q9NPF7+P29460)
[2] = biological target: T1, IL-12 (mouse, p35/p40 heterodimer) (Mus musculus) (UniProt P43431+P43432); settings: 2'-F all C and U (rRfY); 1X PBS, 0.1 mg/mL BSA, 30 min RT
T1 sequence 1: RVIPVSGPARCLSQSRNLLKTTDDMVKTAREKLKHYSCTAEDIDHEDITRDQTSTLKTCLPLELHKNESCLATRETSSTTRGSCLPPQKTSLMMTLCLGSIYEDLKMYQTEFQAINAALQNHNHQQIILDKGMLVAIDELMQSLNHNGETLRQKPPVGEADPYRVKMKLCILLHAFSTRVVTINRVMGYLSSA
T1 sequence 2: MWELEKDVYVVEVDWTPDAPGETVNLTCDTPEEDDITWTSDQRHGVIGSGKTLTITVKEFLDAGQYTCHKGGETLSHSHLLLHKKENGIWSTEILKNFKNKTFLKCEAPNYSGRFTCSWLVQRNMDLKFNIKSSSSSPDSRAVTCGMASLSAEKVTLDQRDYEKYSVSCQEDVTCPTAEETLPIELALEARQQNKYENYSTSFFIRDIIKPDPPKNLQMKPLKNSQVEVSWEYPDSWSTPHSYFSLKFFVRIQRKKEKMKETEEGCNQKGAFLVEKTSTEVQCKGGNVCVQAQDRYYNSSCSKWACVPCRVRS

[3] = biological target: T2, IL-23 (mouse, p19/p40 heterodimer) (Mus musculus) (UniProt Q9EQ14+P43432); settings: 2'-F all C and U (rRfY); 1X PBS, 0.1 mg/mL BSA, 30 min RT
T2 sequence 1: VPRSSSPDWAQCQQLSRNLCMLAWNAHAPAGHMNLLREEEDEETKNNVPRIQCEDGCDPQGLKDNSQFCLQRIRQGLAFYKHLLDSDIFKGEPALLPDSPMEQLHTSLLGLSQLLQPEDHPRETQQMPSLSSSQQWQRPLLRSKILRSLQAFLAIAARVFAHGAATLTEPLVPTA
T2 sequence 2: T1 sequence 2

[4] = biological target: IL-12 (human, p35/p40 heterodimer) (Homo sapiens) (UniProt P29459+P29460)
Chain of IL-12 (human, p35/p40 heterodimer) (Homo sapiens) (P29459 23-219, chain 1 of 2): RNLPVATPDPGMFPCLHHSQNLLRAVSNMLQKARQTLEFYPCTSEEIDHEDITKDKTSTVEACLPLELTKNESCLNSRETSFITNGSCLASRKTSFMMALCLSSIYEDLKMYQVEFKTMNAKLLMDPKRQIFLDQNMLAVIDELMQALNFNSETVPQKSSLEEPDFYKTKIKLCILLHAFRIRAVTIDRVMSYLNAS
Chain of IL-12 (human, p35/p40 heterodimer) (Homo sapiens) (P29460 23-328, chain 2 of 2): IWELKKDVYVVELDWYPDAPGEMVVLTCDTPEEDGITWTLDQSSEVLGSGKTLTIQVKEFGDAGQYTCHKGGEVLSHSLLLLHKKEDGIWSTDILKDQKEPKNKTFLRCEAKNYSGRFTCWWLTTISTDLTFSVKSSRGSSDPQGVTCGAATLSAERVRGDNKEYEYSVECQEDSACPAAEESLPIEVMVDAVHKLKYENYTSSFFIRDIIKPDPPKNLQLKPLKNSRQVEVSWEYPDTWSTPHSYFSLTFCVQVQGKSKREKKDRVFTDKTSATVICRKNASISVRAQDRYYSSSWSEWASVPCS

Chain of IL-23 (human, p19/p40 heterodimer) (Homo sapiens) (Q9NPF7 20-189, chain 1 of 2): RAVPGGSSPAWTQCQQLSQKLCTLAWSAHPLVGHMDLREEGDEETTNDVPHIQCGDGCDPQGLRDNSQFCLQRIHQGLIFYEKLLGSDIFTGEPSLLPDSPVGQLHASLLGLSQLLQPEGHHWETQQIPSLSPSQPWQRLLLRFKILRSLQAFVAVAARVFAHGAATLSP
Chain of IL-23 (human, p19/p40 heterodimer) (Homo sapiens) (P29460 23-328, chain 2 of 2): as the sequence (P29460 23-328, chain 2 of 2) above

## ACAGGCAAGUAAUUGGGGAGUGCGGGCGGGGUGU [ARC1466]
[1]; deoxy A,G, 2'-OMe C,U, PEG spacers between stem 1 strands and core, 3'-idT, DPBS Ca Mg
  Kd: 1.9 nM

## ACAGGCAAGUAAUUGGGGAGUGCGGGCGGGGUGU [ARC1592]
[1]; deoxy A,G, 2'-OMe C,U, dI at G5, 3'-idT [dI at 5 (parent G), 2'-OMe C,U at 2,6,10,13,14,21,23,27,32,34, deoxy A,G elsewhere, 3'-inverted dT at 35], DPBS Ca Mg
  Kd: 8.1 nM

## ACAGGCAAGUAAUUGGGGAGUGCGGGCGGGGUGU [ARC1593]
[1]; deoxy A,G, 2'-OMe C,U, dI at G4,G5, 3'-idT [dI at 4,5 (parent G), 2'-OMe C,U at 2,6,10,13,14,21,23,27,32,34, deoxy A,G elsewhere, 3'-inverted dT at 35], DPBS Ca Mg
  Kd: 13.8 nM

## ACAGGCAAGUAAUUGGGGAGUGCGGGCGGGGUGU [ARC1594]
[1]; deoxy A,G, 2'-OMe C,U, dI at G9, 3'-idT [dI at 9 (parent G), 2'-OMe C,U at 2,6,10,13,14,21,23,27,32,34, deoxy A,G elsewhere, 3'-inverted dT at 35], DPBS Ca Mg
  Kd: 4.2 nM

## ACAGGCAAGUAAUUGGGGAGUGCGGGCGGGGUGU [ARC1595]
[1]; deoxy A,G, 2'-OMe C,U, dI at G15, 3'-idT [dI at 15 (parent G), 2'-OMe C,U at 2,6,10,13,14,21,23,27,32,34, deoxy A,G elsewhere, 3'-inverted dT at 35], DPBS Ca …
  Kd: 5.4 nM

## ACAGGCAAGUAAUUGGGGAGUGCGGGCGGGGUGU [ARC1596]
[1]; deoxy A,G, 2'-OMe C,U, dI at G16, 3'-idT [dI at 16 (parent G), 2'-OMe C,U at 2,6,10,13,14,21,23,27,32,34, deoxy A,G elsewhere, 3'-inverted dT at 35], DPBS Ca …
  Kd: 11.1 nM

## ACAGGCAAGUAAUUGGGGAGUGCGGGCGGGGUGU [ARC1597]
[1]; deoxy A,G, 2'-OMe C,U, dI at G17, 3'-idT [17], DPBS Ca Mg
  Kd: 11.2 nM

## ACAGGCAAGUAAUUGGGGAGUGCGGGCGGGGUGU [ARC1598]
[1]; deoxy A,G, 2'-OMe C,U, dI at G18, 3'-idT [18], DPBS Ca Mg
  Kd: 4.7 nM

## ACAGGCAAGUAAUUGGGGAGUGCGGGCGGGGUGU [ARC1599]
[1]; deoxy A,G, 2'-OMe C,U, dI at G15,G16, 3'-idT [15,16], DPBS Ca Mg
  Kd: 7.2 nM

## ACAGGCAAGUAAUUGGGGAGUGCGGGCGGGGUGU [ARC1600]
[1]; deoxy A,G, 2'-OMe C,U, dI at G16,G17, 3'-idT [16,17], DPBS Ca Mg
  Kd: 15.6 nM

## ACAGGCAAGUAAUUGGGGAGUGCGGGCGGGGUGU [ARC1601]
[1]; deoxy A,G, 2'-OMe C,U, dI at G17,G18, 3'-idT [17,18], DPBS Ca Mg
  Kd: 4.4 nM

## ACAGGCAAGUAAUUGGGGAGUGCGGGCGGGGUGU [ARC1602]
[1]; dRmY, deoxyinosine at G15-G18, 3'-idT [deoxyinosine at 15-18 (parent base G written), 2'-deoxy purines, 2'-OMe C/U (2,6,10,13,14,21,23,27,32,34), 3'-inverted dT at 35], dot blot, DPBS with Ca and Mg, 0.1 mg/mL BSA, 30 min RT
  Kd: 40.8 nM

## ACAGGCAAGUAAUUGGGGAGUGCGGGCGGGGUGU [ARC1603]
[1]; deoxy A,G, 2'-OMe C,U, dI at G20, 3'-idT [20], DPBS Ca Mg
  Kd: 1.6 nM

## ACAGGCAAGUAAUUGGGGAGUGCGGGCGGGGUGU [ARC1604]
[1]; deoxy A,G, 2'-OMe C,U, dI at G22, 3'-idT [22], DPBS Ca Mg
  Kd: 2.1 nM

## ACAGGCAAGUAAUUGGGGAGUGCGGGCGGGGUGU [ARC1605]
[1]; deoxy A,G, 2'-OMe C,U, dI at G24, 3'-idT [24], DPBS Ca Mg
  Kd: 7.5 nM

## ACAGGCAAGUAAUUGGGGAGUGCGGGCGGGGUGU [ARC1606]
[1]; deoxy A,G, 2'-OMe C,U, dI at G25, 3'-idT [25], DPBS Ca Mg
  Kd: 5 nM

## ACAGGCAAGUAAUUGGGGAGUGCGGGCGGGGUGU [ARC1607]
[1]; deoxy A,G, 2'-OMe C,U, dI at G26, 3'-idT [26], DPBS Ca Mg
  Kd: 3.3 nM

## ACAGGCAAGUAAUUGGGGAGUGCGGGCGGGGUGU [ARC1608]
[1]; deoxy A,G, 2'-OMe C,U, dI at G24,G25, 3'-idT [24,25], DPBS Ca Mg
  Kd: 9.7 nM

## ACAGGCAAGUAAUUGGGGAGUGCGGGCGGGGUGU [ARC1609]
[1]; deoxy A,G, 2'-OMe C,U, dI at G25,G26, 3'-idT [25,26], DPBS Ca Mg
  Kd: 4.7 nM

## ACAGGCAAGUAAUUGGGGAGUGCGGGCGGGGUGU [ARC1610]
[1]; deoxy A,G, 2'-OMe C,U, dI at G24-G26, 3'-idT [dI at 24,25,26 (G parent), 2'-OMe C/U at 2,6,10,13,14,21,23,27,32,34, other A,G deoxy, 3'-inverted dT at 35], DPBS Ca Mg
  Kd: 5.2 nM

## ACAGGCAAGUAAUUGGGGAGUGCGGGCGGGGUGU [ARC1611]
[1]; deoxy A,G, 2'-OMe C,U, dI at G28, 3'-idT [dI at 28 (G parent), 2'-OMe C/U at 2,6,10,13,14,21,23,27,32,34, other A,G deoxy, 3'-inverted dT at 35], DPBS Ca Mg
  Kd: 1.7 nM

## ACAGGCAAGUAAUUGGGGAGUGCGGGCGGGGUGU [ARC1612]
[1]; deoxy A,G, 2'-OMe C,U, dI at G29, 3'-idT [dI at 29 (G parent), 2'-OMe C/U at 2,6,10,13,14,21,23,27,32,34, other A,G deoxy, 3'-inverted dT at 35], DPBS Ca Mg
  Kd: 1.9 nM

## ACAGGCAAGUAAUUGGGGAGUGCGGGCGGGGUGU [ARC1613]
[1]; deoxy A,G, 2'-OMe C,U, dI at G30, 3'-idT [dI at 30 (G parent), 2'-OMe C/U at 2,6,10,13,14,21,23,27,32,34, other A,G deoxy, 3'-inverted dT at 35], DPBS Ca Mg
  Kd: 2.3 nM

## ACAGGCAAGUAAUUGGGGAGUGCGGGCGGGGUGU [ARC1614]
[1]; deoxy A,G, 2'-OMe C,U, dI at G31, 3'-idT [dI at 31 (G parent), 2'-OMe C/U at 2,6,10,13,14,21,23,27,32,34, other A,G deoxy, 3'-inverted dT at 35], DPBS Ca Mg
  Kd: 1.7 nM

## ACAGGCAAGUAAUUGGGGAGUGCGGGCGGGGUGU [ARC1615]
[1]; deoxy A,G, 2'-OMe C,U, dI at G28,G29, 3'-idT [dI at 28,29 (G parent), 2'-OMe C/U at 2,6,10,13,14,21,23,27,32,34, other A,G deoxy, 3'-inverted dT at 35], DPBS Ca Mg
  Kd: 5.8 nM

## ACAGGCAAGUAAUUGGGGAGUGCGGGCGGGGUGU [ARC1616]
[1]; deoxy A,G, 2'-OMe C,U, dI at G29,G30, 3'-idT [dI at 29,30 (G parent), 2'-OMe C/U at 2,6,10,13,14,21,23,27,32,34, other A,G deoxy, 3'-inverted dT at 35], DPBS Ca Mg
  Kd: 6.1 nM

## ACAGGCAAGUAAUUGGGGAGUGCGGGCGGGGUGU [ARC1617]
[1]; deoxy A,G, 2'-OMe C,U, dI at G30,G31, 3'-idT [dI at 30,31 (G parent), 2'-OMe C/U at 2,6,10,13,14,21,23,27,32,34, other A,G deoxy, 3'-inverted dT at 35], DPBS Ca Mg
  Kd: 4.1 nM

## ACAGGCAAGUAAUUGGGGAGUGCGGGCGGGGUGU [ARC1618]
[1]; dRmY, deoxyinosine at G28-G31, 3'-idT [deoxyinosine at 28-31 (parent base G written), 2'-deoxy purines, 2'-OMe C/U (2,6,10,13,14,21,23,27,32,34), 3'-inverted dT at 35], dot blot, DPBS with Ca and Mg, 0.1 mg/mL BSA, 30 min RT
  Kd: 34 nM

## ACAGGCAAGUAAUUGGGGAGUGCGGGCGGGGUGU [ARC1619]
[1]; deoxy A,G, 2'-OMe C,U, dI at G33, 3'-idT [dI at 33 (G parent), 2'-OMe C/U at 2,6,10,13,14,21,23,27,32,34, other A,G deoxy, 3'-inverted dT at 35], DPBS Ca Mg
  Kd: 2.8 nM

## CGCAGGCAAGUAAUUGGGGAGUGCGGGCGGGGUGCG [ARC1467]
[1]; 2'-OMe C,U and some stem G, PEG spacers between stem 1 strands and core, 3'-idT, DPBS Ca Mg
  Kd: 1.7 nM

## GGAGCGCACUCAGCCACGGUUUACUUCCGUGGCAAUAUUGACCUCNCUCUAGACAGGUUUCGACCUCUCUGCUAGC [AMX369.F1]
[2]
  Kd: 165 nM
[3]
  Kd: 63 nM

## GGAGCGCACUCAGCCACUGGGGAACAUCUCAUGUCUCUGACCGCUCUUGCAGUAGAAUUUNGACCUCUCUGCUAGC [AMX369.G3]
[2]
  Kd: 261 nM
[3]
  Kd: 106 nM

## GGAGCGCACUCNGCCACUUCGGAAUAUCGUUGUCUUCUGGGUGAGCAUGCGUUGAGGUUUCNACCUCUCUGCUAGC [AMX369.B2]
[2]
  Kd: 252 nM
[3]
  Kd: 49 nM

## GGGAAAAGCGAAUCAUACACAAGAGCGCUUUAGCGGGUAUAGCACUUUUCAUCUAAUGAANCCGUAGCUCCGCCAGAGACCAACCGAGAA [AMX86-H11]
[4]; 2'-F C,U, tRNA
  Kd: 215 nM
[1]; 2'-F C,U, SHMCK, tRNA
  Kd: 367 nM

## GGGAAAAGCGAAUCAUACACAAGAGGUUGAGUACGACGGAGUCNUGGCUAACACGGAAACUAGAGCUCCGCCAGAGACCAACCGAGAA [AMX86-B9]
[4]; 2'-F C,U, tRNA
  Kd: 848 nM
[1]; 2'-F C,U, SHMCK, tRNA
  Kd: 23.7 nM

## GGGAAAAGCGAAUCAUACACAAGAUGUUGAACCUCUUGUGCGUCCCGAUGUUUNGCAAUGUGGAGCUCCGCCAGAGACCAACCGAGAA [AMX86-F7]
[4]; 2'-F all C and U (rRfY), 1X SHMCK, 0.1 mg/mL tRNA, RT
  Kd: 106 nM
[1]; 2'-F all C and U (rRfY), 1X SHMCK, 1 mM Mg, 1 mM Ca, 0.1 mg/mL tRNA, RT
  Kd: 147 nM

## GGGAAAAGCGAAUCCUACCCAAGAUGUUGUUGGCGUUGAUCGUAUGAUUNAUGGAGNGUGUCNGUGCUCCGCCAGAGACCAACCGAGAA [AMX86-E7]
[4]; 2'-F C,U, tRNA
  Kd: 268 nM
[1]; 2'-F C,U, SHMCK, tRNA
  Kd: 210 nM

## GGGAGAGGAGAGAACGUUCUACGGAAGGNAACAANAGCACUGUUUGUGCAGGCGCUGUCGAUCNAUCNAUCNAUG [rRmY clone SEQ 85]
[1]; 2'-OMe C,U, DPBS Ca Mg
  Kd: 240 nM

Source: patent publication US20060193821
